Target: T1, LshC2c2 (Cas13a) wild type (Leptotrichia shahii, UniProt P0DOC6 SEQ:1-1389)
T1 sequence: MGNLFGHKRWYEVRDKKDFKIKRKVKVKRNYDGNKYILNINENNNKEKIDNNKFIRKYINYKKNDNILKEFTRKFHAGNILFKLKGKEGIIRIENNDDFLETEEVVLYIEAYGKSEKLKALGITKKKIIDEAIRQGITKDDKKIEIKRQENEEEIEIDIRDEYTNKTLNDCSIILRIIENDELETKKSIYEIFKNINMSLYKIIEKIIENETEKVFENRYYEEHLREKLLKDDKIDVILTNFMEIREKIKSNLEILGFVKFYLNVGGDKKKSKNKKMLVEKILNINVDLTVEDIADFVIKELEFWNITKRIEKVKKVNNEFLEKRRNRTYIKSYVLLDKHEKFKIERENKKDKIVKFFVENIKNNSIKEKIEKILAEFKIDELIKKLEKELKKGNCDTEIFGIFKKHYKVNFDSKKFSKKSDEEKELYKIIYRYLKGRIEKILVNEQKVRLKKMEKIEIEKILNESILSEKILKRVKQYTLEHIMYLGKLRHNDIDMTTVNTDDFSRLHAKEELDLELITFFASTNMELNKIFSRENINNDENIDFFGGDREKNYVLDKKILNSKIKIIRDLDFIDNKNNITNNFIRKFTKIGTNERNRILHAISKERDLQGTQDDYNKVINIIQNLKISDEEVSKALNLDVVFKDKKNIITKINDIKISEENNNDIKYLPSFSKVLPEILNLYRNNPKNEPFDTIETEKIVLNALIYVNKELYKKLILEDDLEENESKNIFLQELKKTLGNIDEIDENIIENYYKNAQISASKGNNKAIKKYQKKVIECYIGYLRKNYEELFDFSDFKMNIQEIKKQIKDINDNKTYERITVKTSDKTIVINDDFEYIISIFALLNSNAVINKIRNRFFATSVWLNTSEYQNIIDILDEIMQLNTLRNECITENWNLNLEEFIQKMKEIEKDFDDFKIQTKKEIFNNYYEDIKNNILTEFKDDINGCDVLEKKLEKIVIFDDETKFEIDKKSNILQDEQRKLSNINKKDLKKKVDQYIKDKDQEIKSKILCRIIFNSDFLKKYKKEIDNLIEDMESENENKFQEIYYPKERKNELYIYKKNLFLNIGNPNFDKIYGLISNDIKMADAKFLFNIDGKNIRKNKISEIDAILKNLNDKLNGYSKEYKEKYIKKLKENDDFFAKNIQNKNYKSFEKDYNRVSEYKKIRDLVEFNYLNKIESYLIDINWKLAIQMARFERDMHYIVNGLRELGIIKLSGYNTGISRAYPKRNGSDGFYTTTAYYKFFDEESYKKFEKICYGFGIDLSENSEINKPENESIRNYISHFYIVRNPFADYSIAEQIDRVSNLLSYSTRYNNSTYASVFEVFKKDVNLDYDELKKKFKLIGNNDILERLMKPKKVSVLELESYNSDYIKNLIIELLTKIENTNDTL
Assay: EMSA; non-target reverse complement
Conditions: tags: expressed as 6-His-MBP-TEV fusion, TEV-cleaved; direct repeat stem-loop
Text: FIG. 119D Electrophoretic mobility shift assay (EMSA) evaluating affinity of the wild type LshC2c2-crRNA complex against a targeted (left) and a non-targeted (right) ssRNA substrate. The non-targeted ssRNA substrate is the reverse-complement of the targeted ssRNA. EDTA is supplemented to reaction condition to reduce any cleavage activity. FIG. 119E Electrophoretic mobility shift assay with LshC2c2(R1278A)-crRNA complex against on-target ssRNA and non-targeting complementary ssRNA (same substrate sequences as in D). FIG. 119B discloses SEQ ID NOS: 2090-2091, respectively, in order of appearance.
To determine if target binding and cleavage activity of LshC2c2 are likewise separable, electrophoretic mobility shift assays (EMSA) were performed on both the wild-type (FIG. 119D) and R1278A mutant LshC2c2 (FIG. 119E) in complex with crRNA.

B1: crRNA 14 ; ssRNA 10 (rc) (ssRNA ; ssRNA)
RNA 1: CCACCCCAAUAUCGAAGGGGACUAAAACUAGAUUGCUGUUCUACCAAGUAAUCCAU
RNA 2: CUUUAUGCUUCCGGCGUAGAUUGCUGUUCUACCAAGUAAUCCAUAUUCGAGCUCGAAUUCACUGGCCUAU
binding result: no binding

— patent US20240182928, “NOVEL CRISPR ENZYMES AND SYSTEMS” (The Broad Institute, Inc., published 2024)
